T1: FLAG-SUP-12 (Caenorhabditis elegans, UniProt O45189 1-248)
T1 sequence: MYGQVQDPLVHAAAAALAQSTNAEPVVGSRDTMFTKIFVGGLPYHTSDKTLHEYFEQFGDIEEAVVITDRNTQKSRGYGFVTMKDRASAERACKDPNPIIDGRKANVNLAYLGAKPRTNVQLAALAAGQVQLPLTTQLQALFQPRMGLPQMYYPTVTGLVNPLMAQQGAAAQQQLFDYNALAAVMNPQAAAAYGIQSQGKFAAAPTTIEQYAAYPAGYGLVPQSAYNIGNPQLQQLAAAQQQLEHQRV


Tests used:
[1] = biological target: T1, FLAG-SUP-12; assay: EMSA; 20 mM HEPES-KOH pH 7.9, 150 mM KCl, 5% glycerol (EMSA only), 1% Triton X-100, 1 mM DTT, 0.1 mM PMSF, 100 ng/ul E. coli tRNA, 50 ng/ul BSA, 30 min, 20 C; conditions: protein: recombinant; tags: FLAG; label: 32P (alpha-32P UTP, internal)
[2] = biological target: T1, FLAG-SUP-12; assay: EMSA; similar extent to WT; 20 mM HEPES-KOH pH 7.9, 150 mM KCl, 5% glycerol (EMSA only), 1% Triton X-100, 1 mM DTT, 0.1 mM PMSF, 100 ng/ul E. coli tRNA, 50 ng/ul BSA, 30 min, 20 C; conditions: protein: recombinant; tags: FLAG; label: 32P (alpha-32P UTP, internal)

Binder	binding result [1]	binding result [2]
GGGAGACUAACCUAACCUAACCUAUGUGUGCCUGUUUUCUAG (ssRNA) [unc-60 intron 1A WT EMSA probe]	binds	–
GGGAGACAAACCAAACCAAACCUAUGUGUGCCUGUUUUCUAG (ssRNA) [unc-60 intron 1A M1 EMSA probe]	–	binds

From PMC3469465, “Muscle-Specific Splicing Factors ASD-2 and SUP-12 Cooperatively Switch Alternative Pre-mRNA Processing Patterns of the ADF/Cofilin Gene in Caenorhabditis elegans”
